Where “and” joins values, the source holds several entries; their conditions need not be identical. Identical values can stand only once.
How the values were obtained:
Assay in all cases: fluorescence anisotropy
[1] = tested on: eIF4A; details: 20 mM HEPES-KOH pH 7.6, 200 mM KCl, 1 mM MgCl2, 25 ± 0.5 °C; 10 nM labeled RNA; co-factors 1 µM eIF4A, 1 µM eIF4E, 1 mM ATP (2.5 µM proteins also stated)
[2] = tested on: eIF4B (Homo sapiens); details: 20 mM HEPES-KOH pH 7.6, 200 mM KCl, 1 mM MgCl2, 25 ± 0.5 °C; 10 nM labeled RNA; co-factors 1 µM eIF4A, 1 µM eIF4E, 1 mM ATP (2.5 µM proteins also stated)
[3] = tested on: eIF4GI557-1599 (Homo sapiens); details: 20 mM HEPES-KOH pH 7.6, 200 mM KCl, 1 mM MgCl2, 25 ± 0.5 °C; 10 nM labeled RNA; co-factors 1 µM eIF4A, 1 µM eIF4E, 1 mM ATP (2.5 µM proteins also stated)
[4] = tested on: eIF4GI557-1599;eIF4A (Homo sapiens;Homo sapiens?); details: 20 mM HEPES-KOH pH 7.6, 200 mM KCl, 1 mM MgCl2, 25 ± 0.5 °C, 10 nM labeled RNA, co-factors 1 µM eIF4A, 1 µM eIF4E, 1 mM ATP (2.5 µM proteins also stated)
[5] = tested on: eIF4GI557-1599;eIF4A;eIF4B (Homo sapiens;;Homo sapiens); details: 20 mM HEPES-KOH pH 7.6, 200 mM KCl, 1 mM MgCl2, 25 ± 0.5 °C, 10 nM labeled RNA, co-factors 1 µM eIF4A, 1 µM eIF4E, 1 mM ATP (2.5 µM proteins also stated)
[6] = tested on: eIF4GI557-1599;eIF4A;eIF4E (Homo sapiens;;Homo sapiens); details: 20 mM HEPES-KOH pH 7.6, 200 mM KCl, 1 mM MgCl2, 25 ± 0.5 °C, 10 nM labeled RNA, co-factors 1 µM eIF4A, 1 µM eIF4E, 1 mM ATP (2.5 µM proteins also stated)
[7] = tested on: eIF4GI557-1599;eIF4A;eIF4E;eIF4B (Homo sapiens;Homo sapiens?;Homo sapiens;Homo sapiens); details: 20 mM HEPES-KOH pH 7.6, 200 mM KCl, 1 mM MgCl2, 25 ± 0.5 °C; 10 nM labeled RNA; co-factors 1 µM eIF4A, 1 µM eIF4E, 1 mM ATP (2.5 µM proteins also stated)
[8] = tested on: eIF4GI557-1599;eIF4E (Homo sapiens;Homo sapiens); details: 20 mM HEPES-KOH pH 7.6, 200 mM KCl, 1 mM MgCl2, 25 ± 0.5 °C; 10 nM labeled RNA; co-factors 1 µM eIF4A, 1 µM eIF4E, 1 mM ATP (2.5 µM proteins also stated)
[9] = tested on: eIF4GI682-1599 (Homo sapiens); details: 20 mM HEPES-KOH pH 7.6, 200 mM KCl, 1 mM MgCl2, 25 ± 0.5 °C; 10 nM labeled RNA; co-factors 1 µM eIF4A, 1 µM eIF4E, 1 mM ATP (2.5 µM proteins also stated)
[10] = tested on: eIF4GI682-1599;eIF4A (Homo sapiens;Homo sapiens?); details: 20 mM HEPES-KOH pH 7.6, 200 mM KCl, 1 mM MgCl2, 25 ± 0.5 °C; 10 nM labeled RNA; co-factors 1 µM eIF4A, 1 µM eIF4E, 1 mM ATP (2.5 µM proteins also stated)
[11] = tested on: eIF4GI682-1599;eIF4A;eIF4E (Homo sapiens;;Homo sapiens); details: 20 mM HEPES-KOH pH 7.6, 200 mM KCl, 1 mM MgCl2, 25 ± 0.5 °C; 10 nM labeled RNA; co-factors 1 µM eIF4A, 1 µM eIF4E, 1 mM ATP (2.5 µM proteins also stated)
[12] = tested on: eIF4GI682-1599;eIF4E (Homo sapiens;Homo sapiens); details: 20 mM HEPES-KOH pH 7.6, 200 mM KCl, 1 mM MgCl2, 25 ± 0.5 °C; 10 nM labeled RNA; co-factors 1 µM eIF4A, 1 µM eIF4E, 1 mM ATP (2.5 µM proteins also stated)

Substance	Kd [1]	Kd [2] [nM]	Kd [3] [nM]	Kd [4] [nM]	Kd ([4]; no nucleotide) [nM]	Kd [5] [nM]	Kd ([5]; AMP-PNP) [nM]	Kd ([5]; no nucleotide) [nM]	Kd [6] [nM]	Kd ([6]; ADP) [nM]	Kd ([6]; no nucleotide) [nM]	Kd [7] [nM]	Kd [8] [nM]	Kd [9] [nM]	Kd [10]	Kd [11]	Kd [12] [nM]
HIF-1α 5'UTR (uncapped)	252 nM and 28 nM	54	50	13	17	17	14	12	22	26	14	19	15	139	17 nM and 20 nM	21 nM and 16 nM	142
FGF-9 5'UTR (uncapped)	667 nM and 115 nM	38	14	14	16	19	20	24	18	13	15	14	16	120	26 nM and 16 nM	20 nM and 30 nM	110

From article PMC11570956
